± gives the standard error. For some assays here: This sample holds only a part of the variants without activity.
B1: glmS ribozyme (parent)
chain: AUAAAAGCGCCAGAACUACAGAAAUGUAGUUGACGAGGAGGAGGUUUAUCGAAUUUUCGGCGGAUGCCUCCAAA

How the values were obtained:
Conditions in all cases: with glucosamine-6-phosphate
glucosamine-6-phosphate [1] = variants of: B1; experiment: kcat; higher = faster cleavage; RNA array
In short: (§1)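 Glucosamine-6-phosphate, from 40 μM to 10 mM in HEPES/KCl/Mg(OAc)2 buffer, was flowed over sequenced MiSeq chips carrying barcoded ribozyme variants transcribed in situ by E. coli RNA polymerase. A hybridised Cy3 probe tracked the variants at 37 °C as tiles were imaged over ~14 h. kobs, kcat and KM were obtained by fitting normalised per-tile medians to exponential decays and then applying weighted Michaelis–Menten fits across concentrations.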

glucosamine-6-phosphate [2] = variants of: B1; experiment: KM; higher = weaker cofactor use; RNA array
In short: as §1

glucosamine-6-phosphate [3] = variants of: B1; experiment: self-cleavage kobs at 40 uM GlcN6P; higher = faster cleavage; RNA array
In short: as §1

glucosamine-6-phosphate [4] = variants of: B1; experiment: self-cleavage kobs at 160 uM GlcN6P; higher = faster cleavage; RNA array
In short: as §1

glucosamine-6-phosphate [5] = variants of: B1; experiment: self-cleavage kobs at 640 uM GlcN6P; higher = faster cleavage; RNA array
In short: as §1

glucosamine-6-phosphate [6] = variants of: B1; experiment: self-cleavage kobs at 2500 uM GlcN6P; higher = faster cleavage; RNA array
In short: as §1

glucosamine-6-phosphate [7] = variants of: B1; experiment: self-cleavage kobs at 10000 uM GlcN6P; higher = faster cleavage; RNA array
In short: as §1

| Variant | kcat (glucosamine-6-phosphate [1]) [s⁻¹] | KM (glucosamine-6-phosphate [2]) [µM] | self-cleavage kobs at 40 uM GlcN6P (glucosamine-6-phosphate [3]) [s⁻¹] | self-cleavage kobs at 160 uM GlcN6P (glucosamine-6-phosphate [4]) [s⁻¹] | self-cleavage kobs at 640 uM GlcN6P (glucosamine-6-phosphate [5]) [s⁻¹] | self-cleavage kobs at 2500 uM GlcN6P (glucosamine-6-phosphate [6]) [s⁻¹] | self-cleavage kobs at 10000 uM GlcN6P (glucosamine-6-phosphate [7]) [s⁻¹] |
| --- | --- | --- | --- | --- | --- | --- | --- |
| U45C C67U | 0.00406 ± 0.00066 | 2250 ± 580 | 8.28e-05 ± 9.7e-06 | 0.000146 ± 5.8e-05 | 0.000935 ± 0.00014 | 0.00203 ± 0.00032 | 0.00337 ± 0.00031 |
| U46A U56C | 0.0005 ± 4.2e-05 | 1350 ± 250 |  |  | 0.000158 ± 3.2e-05 | 0.000362 ± 8.4e-05 | 0.000424 ± 8.3e-05 |
| U45A U46C | 0.0497 ± 0.021 | 3030 ± 1500 | 0.000726 ± 0.00015 | 0.00197 ± 0.00065 |  | 0.0334 ± 0.017 | 0.0365 ± 0.012 |
| U45A A53G | 0.0342 ± 0.011 | 692 ± 270 | 0.002 ± 0.00022 | 0.00536 ± 0.0026 | 0.0131 ± 0.0026 |  | 0.0473 ± 0.012 |
| U46A C50U C58A C71G | 1.07e-05 ± 3e-06 |  |  |  |  |  |  |
| U45C U65A C67G | 0.00116 ± 0.00022 | 1660 ± 630 | 3.4e-05 ± 1.6e-05 |  | 0.000279 ± 0.0001 |  | 0.000996 ± 0.00022 |
| U45G U55C | 0.00551 ± 0.00089 | 2350 ± 590 | 0.000129 ± 2.6e-05 | 0.000297 ± 5.2e-05 | 0.00131 ± 0.0002 | 0.00273 ± 0.00035 | 0.00455 ± 0.00058 |
| U46C C70G | 0.000447 ± 0.00013 |  | 6.28e-05 ± 2.3e-05 | 3.81e-05 ± 1.5e-05 | 0.000178 ± 2.9e-05 | 0.000453 ± 6.5e-05 | 0.000346 ± 5.5e-05 |
| U45C U54C | 0.00224 ± 0.00051 | 2240 ± 770 |  | 0.000142 ± 3.9e-05 | 0.00057 ± 0.00012 | 0.00105 ± 0.00023 | 0.00213 ± 0.00063 |
| G44U U56G | 0.00018 ± 3.5e-05 | 3010 ± 1100 |  |  | 3.67e-05 ± 1.1e-05 | 6.96e-05 ± 1.9e-05 | 0.00015 ± 3.7e-05 |
| G44U C68U | 2.53e-05 ± 4.3e-07 | 915 ± 100 | < 1e-05 |  |  |  | 2.31e-05 ± 7.7e-06 |
| U45G C68U | 0.00118 ± 0.00032 | 5190 ± 2400 |  | 5.23e-05 ± 1.3e-05 | 0.000145 ± 2.5e-05 | 0.000287 ± 5.6e-05 | 0.000826 ± 8.4e-05 |
| U45G C68G | 0.000114 ± 1.6e-05 | 2980 ± 1100 |  |  | 2.89e-05 ± 1.3e-05 | 4.55e-05 ± 1.3e-05 | 8.96e-05 ± 1.3e-05 |
| U45A U69G | 6.38e-05 ± 2e-05 |  |  |  | 5.46e-05 ± 1.9e-05 | 0.000109 ± 3.2e-05 |  |
| U46A U54G C70G | 0.000171 ± 6e-05 |  |  | 6.23e-05 ± 2e-05 | 0.000291 ± 6.7e-05 | 0.000305 ± 6.4e-05 | 0.000127 ± 2.9e-05 |
| U45A A48C | 0.000559 ± 7.1e-05 | 2130 ± 560 |  |  | 0.000131 ± 2.3e-05 | 0.000382 ± 8.1e-05 | 0.000445 ± 5.6e-05 |
| U45G A53G | 0.0084 ± 0.0028 | 2020 ± 990 | 0.000258 ± 4.3e-05 | 0.000367 ± 0.00012 | 0.00204 ± 0.00042 | 0.00535 ± 0.0012 | 0.00681 ± 0.0011 |
| G44U C70U | 3.72e-05 ± 5.6e-06 |  | < 1e-05 | < 1e-05 |  | 3.43e-05 ± 1.1e-05 | 3.29e-05 ± 6.6e-06 |
| U45A C71G | 0.00102 ± 0.00046 |  | 0.000108 ± 2e-05 | 0.00023 ± 8.2e-05 | 0.000442 ± 9.7e-05 | 0.00123 ± 0.00059 | 0.00177 ± 0.00039 |
| U45A G66U | 0.00194 ± 0.00019 | 2090 ± 330 | 4.15e-05 ± 1.3e-05 | 0.000117 ± 3.4e-05 | 0.000508 ± 0.0001 | 0.00104 ± 0.00022 | 0.0016 ± 0.00026 |
| G44U U45A | 0.000658 ± 0.00016 | 1820 ± 740 |  |  | 0.000175 ± 3.5e-05 | 0.000478 ± 9.7e-05 | 0.00046 ± 0.00014 |
| U45A U65C | 0.00412 ± 0.0005 | 1770 ± 290 | 9.95e-05 ± 1.1e-05 | 0.000318 ± 6.3e-05 | 0.000994 ± 0.00014 | 0.00204 ± 0.00054 | 0.00374 ± 0.00047 |
| U45A | 0.0731 ± 0.026 | 1680 ± 700 | 0.00192 ± 4e-05 | 0.00532 ± 0.00022 | 0.0167 ± 0.00063 | 0.0529 ± 0.0042 | 0.0751 ± 0.0041 |
| U45G | 0.011 ± 0.0012 | 2240 ± 300 | 0.000203 ± 3.8e-06 | 0.000679 ± 2.9e-05 | 0.00227 ± 5.8e-05 | 0.00566 ± 0.00017 | 0.00968 ± 0.00036 |
| U45C | 0.00494 ± 0.00052 | 2740 ± 390 | 7.81e-05 ± 1.8e-06 | 0.000232 ± 9.5e-06 | 0.000897 ± 2.2e-05 | 0.00247 ± 6.8e-05 | 0.00385 ± 9.4e-05 |
| U45A G59A | 0.00059 ± 0.00018 |  | < 1e-05 |  | 2.71e-05 ± 1e-05 | 6.8e-05 ± 3.3e-05 | 0.000234 ± 3.9e-05 |
| U46A C71U | 0.00396 ± 0.00074 | 2020 ± 580 | 8.79e-05 ± 1.3e-05 | 0.000232 ± 6.3e-05 | 0.000874 ± 0.00015 | 0.00353 ± 0.00069 | 0.00319 ± 0.00037 |

Reference: the supplement of paper PMC7125110
